Experimental findings from publication PMC7722742, “Structure of native glycolipoprotein filaments in honeybee royal jelly” (Nature Communications, 2020) are described below.

To fix the notation:
T1: MRJP1_4/apisimin4 hetero-octamer (native royal jelly filament) (Apis mellifera, UniProt O18330+Q8ISL8)
T1 construct: gene Mrjp1; native, purified from commercial royal jelly (Bio-Gelee Royale) at pH 4.0; N-glycosylated (Asn28, Asn144, Asn177); signal peptides removed; N-termini NILRGE (MRJP1) and KTSISV (apisimin); model residues 20-431 of MRJP1 and 33-76 of apisimin; 4:4 hetero-octamers stacked into helical filaments
T1 sequence (O18330 20-432): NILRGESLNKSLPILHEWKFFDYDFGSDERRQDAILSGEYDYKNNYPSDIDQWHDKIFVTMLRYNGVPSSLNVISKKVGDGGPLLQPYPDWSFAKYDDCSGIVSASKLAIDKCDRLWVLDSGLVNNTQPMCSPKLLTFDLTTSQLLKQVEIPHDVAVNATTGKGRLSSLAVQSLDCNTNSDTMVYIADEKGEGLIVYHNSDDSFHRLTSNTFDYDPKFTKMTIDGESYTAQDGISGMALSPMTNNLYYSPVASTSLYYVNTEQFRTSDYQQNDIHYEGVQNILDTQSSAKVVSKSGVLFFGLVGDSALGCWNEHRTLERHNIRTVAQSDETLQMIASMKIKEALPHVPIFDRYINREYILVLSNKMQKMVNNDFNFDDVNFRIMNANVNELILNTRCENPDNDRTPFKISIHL
T1 sequence (Q8ISL8 25-78): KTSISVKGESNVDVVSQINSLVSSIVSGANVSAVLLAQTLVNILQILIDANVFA

B1: major royal jelly protein 1 (natural protein, Apis mellifera, UniProt O18330 20-432, looked up)
chain: T1 sequence (O18330 20-432)
modifications: N-linked glycans at Asn28, Asn144 and Asn177 (modelled: one NAG at Asn28, two NAG at Asn144, two NAG plus a BMA at Asn177)
notes: major royal jelly protein 1 (MRJP1), honeybee Apis mellifera, native glycoprotein from royal jelly; the final model holds residues 20-431; Native protein; in the filament it stands with apisimin, 24-methylenecholesterol and further unassigned lipids; also called MRJP1; MRPJ1; source: purified from commercially available royal jelly as RJ filaments (ammonium sulfate precipitation, SEC at pH 4.0)
B2: apisimin (natural protein, Apis mellifera, UniProt Q8ISL8 25-78, looked up)
chain: T1 sequence (Q8ISL8 25-78)
notes: apisimin, small (5 kDa) royal jelly protein, honeybee Apis mellifera, native; the final model holds residues 33-76; Native protein, co-purified with MRJP1 in the filaments; also called apimisin; source: purified from commercially available royal jelly as RJ filaments (ammonium sulfate precipitation, SEC at pH 4.0)

The target in series [1] is T1, MRJP1_4/apisimin4 hetero-octamer (native royal jelly filament). Description: cryo-EM helical reconstruction, […] A. It counts as binding. The following applies: pH 4.0; native co-purified lipid, 8 per MRJP1_4/apisimin4 unit; built starting from crystal structure PDB 5yyl.
In the series “apisimin” the target is B2. Description: quantitative Edman sequencing; purified RJ filaments (SEC fractions above 500 kDa, pH 4.0); six degradation cycles; molar ratio of the MRJP1 and apisimin residues. The note with it: both partners purified.
Series [2] deals with the molecule itself. The experiment in a line: cryo-EM structure; real-space helical reconstruction of native RJ filaments purified at pH 4.0 (10 mM formic acid-NaOH pH 4.0, 150 mM NaCl), graphene oxide-coated grids, 3.5 Å.
Series [3] addresses B1. The description is as above. The note with it: both partners purified.

As for `C=C(CC[C@@H](C)[C@H]1CC[C@H]2[C@@H]3CC=C4C[C@@H](O)CC[C@]4(C)[C@H]3CC[C@]12C)C(C)C` [24-methylenecholesterol], the “cryo-EM helical reconstruction, 3.5 A” value in series [1] was “Apisimin is colored in red, 24-methylenecholesterol in blue, and N-glycans in silver”.

With B1, the “stoichiometry N” value with apisimin is 1.15 ± 0.32 molar ratio MRJP1/apisimin. For the same molecule, the binding result in series [2] is on record as “binds”.

For the molecule B2, the binding result in series [3] and in series [2] was “binds” in each case.
